Reference: patent publication US20210130454A1 (BLUEFIN BIOMEDICINE, published 2021)
Blank lines part the entries; values can stand above or below the binder they belong to.

What was measured:
[1] = target: T1, human SEZ6L2 on cells (293-SEZ6L2, HEK 293 cells transfected with human SEZ6L2, and SEZ6L2-expressing tumor … (human, UniProt Q6UXD5 28-910)); assay: immunofluorescence and flow cytometry on HEK 293 cells transfected with human SEZ6L2 against untransfected cells
T1 construct: Tumor cell lines express the endogenous protein; also called hSEZ6L2

[2] = target: T2, human SEZ6 on cells (293-SEZ6) (human, UniProt Q53EL9 20-994); assay: flow cytometry on live 293-SEZ6 cells, Alexa Fluor 488 anti-human IgG secondary [continued), panel G]
T2 construct: whole, on cells; also called Seizure Protein 6 Homolog
T2 sequence (looked up): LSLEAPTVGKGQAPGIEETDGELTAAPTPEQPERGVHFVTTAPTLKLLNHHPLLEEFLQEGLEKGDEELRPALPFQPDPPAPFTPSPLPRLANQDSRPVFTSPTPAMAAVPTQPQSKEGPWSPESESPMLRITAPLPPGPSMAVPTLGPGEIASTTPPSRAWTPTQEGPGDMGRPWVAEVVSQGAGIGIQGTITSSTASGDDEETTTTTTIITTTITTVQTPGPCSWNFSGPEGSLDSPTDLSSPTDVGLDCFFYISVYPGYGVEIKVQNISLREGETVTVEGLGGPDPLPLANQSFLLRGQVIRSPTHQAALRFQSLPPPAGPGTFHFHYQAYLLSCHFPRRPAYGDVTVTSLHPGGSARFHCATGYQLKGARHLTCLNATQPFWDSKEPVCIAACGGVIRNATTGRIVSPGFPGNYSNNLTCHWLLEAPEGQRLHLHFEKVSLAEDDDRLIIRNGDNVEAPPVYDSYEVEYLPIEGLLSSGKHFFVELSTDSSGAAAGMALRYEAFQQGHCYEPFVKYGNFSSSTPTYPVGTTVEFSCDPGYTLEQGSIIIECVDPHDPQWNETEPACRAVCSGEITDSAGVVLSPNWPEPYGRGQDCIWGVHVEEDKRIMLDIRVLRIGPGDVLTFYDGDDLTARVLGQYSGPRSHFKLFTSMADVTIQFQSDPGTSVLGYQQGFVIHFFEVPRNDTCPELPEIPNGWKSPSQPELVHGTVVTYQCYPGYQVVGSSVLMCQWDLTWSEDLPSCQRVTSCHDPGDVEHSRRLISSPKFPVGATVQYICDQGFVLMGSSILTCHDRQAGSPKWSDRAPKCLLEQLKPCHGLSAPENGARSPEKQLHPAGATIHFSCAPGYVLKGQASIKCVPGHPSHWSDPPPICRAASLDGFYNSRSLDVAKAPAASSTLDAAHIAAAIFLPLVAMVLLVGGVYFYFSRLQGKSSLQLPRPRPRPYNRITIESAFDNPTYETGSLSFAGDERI

[3] = target: T1, human SEZ6L2 on cells (293-SEZ6L2, HEK …); assay: flow cytometry on live 293-SEZ6L2 cells, primary antibody 1 ug/ml, Alexa Fluor 488 anti-human IgG secondary [continued), panel G]
[4] = target: T3, human SEZ6L on cells (293-SEZ6L) (human, UniProt Q9BYH1 29-1024); assay: flow cytometry on live 293-SEZ6L cells, Alexa Fluor 488 anti-human IgG secondary [continued), panel G]
T3 construct: whole, on cells; also called Seizure 6-like Protein
T3 sequence (looked up): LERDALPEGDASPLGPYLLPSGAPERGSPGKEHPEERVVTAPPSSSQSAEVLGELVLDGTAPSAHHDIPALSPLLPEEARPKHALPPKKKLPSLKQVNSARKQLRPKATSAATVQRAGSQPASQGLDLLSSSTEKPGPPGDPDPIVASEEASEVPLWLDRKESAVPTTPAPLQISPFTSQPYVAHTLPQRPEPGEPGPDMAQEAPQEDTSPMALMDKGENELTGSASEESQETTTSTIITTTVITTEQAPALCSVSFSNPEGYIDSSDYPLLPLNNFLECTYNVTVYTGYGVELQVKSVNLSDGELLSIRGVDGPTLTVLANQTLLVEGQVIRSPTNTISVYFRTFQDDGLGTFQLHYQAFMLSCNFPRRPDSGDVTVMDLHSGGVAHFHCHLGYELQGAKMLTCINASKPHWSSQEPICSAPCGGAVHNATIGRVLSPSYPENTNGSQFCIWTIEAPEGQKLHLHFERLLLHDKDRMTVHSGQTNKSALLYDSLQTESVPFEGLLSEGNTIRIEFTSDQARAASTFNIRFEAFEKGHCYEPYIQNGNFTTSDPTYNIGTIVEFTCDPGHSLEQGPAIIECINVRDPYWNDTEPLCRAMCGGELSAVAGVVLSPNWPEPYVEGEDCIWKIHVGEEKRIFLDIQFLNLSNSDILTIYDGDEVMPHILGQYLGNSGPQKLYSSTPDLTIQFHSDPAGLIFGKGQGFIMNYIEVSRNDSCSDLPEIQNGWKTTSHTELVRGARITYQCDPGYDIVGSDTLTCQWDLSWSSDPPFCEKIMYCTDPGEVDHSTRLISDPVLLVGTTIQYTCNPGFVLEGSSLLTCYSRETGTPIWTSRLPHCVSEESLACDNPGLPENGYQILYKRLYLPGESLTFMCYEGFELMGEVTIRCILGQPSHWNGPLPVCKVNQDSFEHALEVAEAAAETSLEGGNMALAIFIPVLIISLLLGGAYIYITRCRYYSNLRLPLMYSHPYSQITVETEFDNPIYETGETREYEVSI

[5] = target: T4, recombinant cynomolgus monkey SEZ6L2 (cynomolgus monkey, UniProt G7Q0V6 28-844); assay: BLI (ForteBio Octet Red96), antibody on Protein A biosensors, recombinant target protein in solution
T4 construct: The construct is not described; also called cynomolgus monkey SEZL2

[6] = target: T5, recombinant human SEZ6L2 (extracellular portion of human SEZ6L2 fused to six C-terminal histidine-tag repeats) (human, UniProt Q6UXD5 28-844); assay: as above
T5 construct: also called SEZ6L2-his; recombinant SEZ6L2

[7] = target: T2, human SEZ6 on cells (293-SEZ6); assay: flow cytometry on live 293-SEZ6 cells, Alexa Fluor 488 anti-human IgG secondary [panel A]
[8] = target: T3, human SEZ6L on cells (293-SEZ6L); assay: flow cytometry on live 293-SEZ6L cells, Alexa Fluor 488 anti-human IgG secondary [panel A]
[9] = target: T2, human SEZ6 on cells (293-SEZ6); assay: flow cytometry on live 293-SEZ6 cells, Alexa Fluor 488 anti-human IgG secondary [continued), panel F]
[10] = target: T3, human SEZ6L on cells (293-SEZ6L); assay: flow cytometry on live 293-SEZ6L cells, Alexa Fluor 488 anti-human IgG secondary [continued), panel F]
[11] = target: T1, human SEZ6L2 on cells (293-SEZ6L2, HEK …); assay: flow cytometry on live 293-SEZ6L2 cells, primary antibody 1 ug/ml, Alexa Fluor 488 anti-human IgG secondary [continued), panel F]
[12] = target: T3, human SEZ6L on cells (293-SEZ6L); assay: flow cytometry on live 293-SEZ6L cells, Alexa Fluor 488 anti-human IgG secondary [continued), panel I]
[13] = target: T2, human SEZ6 on cells (293-SEZ6); assay: flow cytometry on live 293-SEZ6 cells, Alexa Fluor 488 anti-human IgG secondary [continued), panel I]
[14] = target: T2, human SEZ6 on cells (293-SEZ6); assay: flow cytometry on live 293-SEZ6 cells, Alexa Fluor 488 anti-human IgG secondary [continued), panel H]
[15] = target: T3, human SEZ6L on cells (293-SEZ6L); assay: flow cytometry on live 293-SEZ6L cells, Alexa Fluor 488 anti-human IgG secondary [continued), panel H]
[16] = target: T1, human SEZ6L2 on cells (293-SEZ6L2, HEK …); assay: flow cytometry on live 293-SEZ6L2 cells, primary antibody 1 ug/ml, Alexa Fluor 488 anti-human IgG secondary [continued), panel H]

T1 sequence (Q6UXD5 28-910): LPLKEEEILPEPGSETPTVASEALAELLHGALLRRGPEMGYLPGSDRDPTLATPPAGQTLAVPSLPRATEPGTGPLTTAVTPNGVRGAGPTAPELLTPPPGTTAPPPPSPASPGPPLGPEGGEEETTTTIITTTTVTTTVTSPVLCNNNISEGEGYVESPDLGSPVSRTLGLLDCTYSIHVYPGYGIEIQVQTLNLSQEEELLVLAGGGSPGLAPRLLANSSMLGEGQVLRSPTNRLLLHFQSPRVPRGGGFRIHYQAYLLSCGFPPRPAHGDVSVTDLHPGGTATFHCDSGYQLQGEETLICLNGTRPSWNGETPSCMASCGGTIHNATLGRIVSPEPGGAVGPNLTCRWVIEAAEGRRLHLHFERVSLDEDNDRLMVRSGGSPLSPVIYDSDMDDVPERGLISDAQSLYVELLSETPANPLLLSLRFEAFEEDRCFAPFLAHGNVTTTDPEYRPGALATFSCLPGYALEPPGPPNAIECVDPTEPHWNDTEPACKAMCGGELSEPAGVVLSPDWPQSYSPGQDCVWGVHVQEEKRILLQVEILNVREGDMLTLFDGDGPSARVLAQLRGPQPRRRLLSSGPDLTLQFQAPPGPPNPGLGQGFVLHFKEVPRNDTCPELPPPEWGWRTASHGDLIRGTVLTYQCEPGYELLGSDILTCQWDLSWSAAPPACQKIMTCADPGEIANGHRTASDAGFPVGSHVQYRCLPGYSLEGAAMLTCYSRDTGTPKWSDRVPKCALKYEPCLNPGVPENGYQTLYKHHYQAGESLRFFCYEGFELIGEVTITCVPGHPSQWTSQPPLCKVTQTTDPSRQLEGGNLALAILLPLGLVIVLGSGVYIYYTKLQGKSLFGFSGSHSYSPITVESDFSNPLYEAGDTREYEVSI
T5 sequence (Q6UXD5 other isoform, or with tags, fused parts or gaps): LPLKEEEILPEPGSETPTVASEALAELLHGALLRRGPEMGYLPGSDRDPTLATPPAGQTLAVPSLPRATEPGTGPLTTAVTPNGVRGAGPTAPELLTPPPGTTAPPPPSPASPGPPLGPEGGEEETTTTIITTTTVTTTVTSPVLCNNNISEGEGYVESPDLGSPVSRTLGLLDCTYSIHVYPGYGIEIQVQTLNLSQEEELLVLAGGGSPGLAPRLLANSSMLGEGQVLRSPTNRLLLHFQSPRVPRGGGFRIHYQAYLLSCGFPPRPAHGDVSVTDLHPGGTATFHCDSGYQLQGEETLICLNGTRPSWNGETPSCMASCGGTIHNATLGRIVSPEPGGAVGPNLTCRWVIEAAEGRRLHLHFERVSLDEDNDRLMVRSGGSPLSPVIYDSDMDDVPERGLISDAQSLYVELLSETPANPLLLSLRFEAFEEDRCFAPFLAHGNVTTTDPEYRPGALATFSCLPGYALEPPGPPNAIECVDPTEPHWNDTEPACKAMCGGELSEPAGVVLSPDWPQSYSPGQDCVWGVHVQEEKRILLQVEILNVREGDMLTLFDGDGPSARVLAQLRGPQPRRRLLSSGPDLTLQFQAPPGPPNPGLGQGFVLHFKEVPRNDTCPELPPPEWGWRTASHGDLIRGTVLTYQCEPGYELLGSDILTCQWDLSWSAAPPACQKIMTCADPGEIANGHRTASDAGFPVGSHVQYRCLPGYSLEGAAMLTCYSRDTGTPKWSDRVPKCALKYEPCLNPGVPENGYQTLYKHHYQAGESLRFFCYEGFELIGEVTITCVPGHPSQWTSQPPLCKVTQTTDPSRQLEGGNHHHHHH

binding result [9]: no binding (tested: 1 ug/ml)
binding result [10]: no binding (tested: 1 ug/ml)
binding result [11]: binds
B4: human anti-SEZ6L2 antibody 3B1 (antibody, V domains shown)
VH: QVQLVESGGGVVQPGRSLRLTCVVSGFAFSSYGMHWVRQAPGKGLEWVAVIWYDGSNKYYADSVKGRFTISRDNSKNTLYLQMNSLRAEDTAVYYCASLDYYGSGSRFDPWGQGTLVTVSS
VL: not shown
notes: Fully human antibody from H2L2 mice

binding result [12]: no binding (tested: 1 ug/ml)
Kd [5]: 12 nM
Kd [6]: 7 nM
binding result [13]: no binding (tested: 1 ug/ml)
B6: humanized anti-SEZ6L2 antibody 2E4 (antibody, human IgG1, V domains shown)
VH: EVKLVESGGVLVKPGGSLRLSCAASGFTFSKYAMSWVRQAPGKGLEWVSTISSGGSYTYYPDSVKGRFTISRDNARNSLYLQMNSLRAEDTAIYYCTREGGYDEGYAMDYWGQGTTVTVSS
VL: DIVMTQSPDSLAVSLGERATINCRSSQSLVHSYGNTYLHWYQQKPGQPPKLLIYKVSNRFSGVPDRFSGSGSGTDFTLTISSLQAEDVAVYFCSQSTHFRTFGGGTKVEIKR
notes: also called 2E4:4D2

binding result [14]: no binding (tested: 1 ug/ml)
binding result [15]: no binding (tested: 1 ug/ml)
binding result [16]: binds
B7: human anti-SEZ6L2 antibody 3B6 (antibody, V domains shown)
VH: QVQLVQSGAEVKKPGASVKVSCKASGYTFTAYYMHWVRQAPGQGLEWMGWINPNSGGTNYAQKFQGRVTMTRDTSIDTAYLDLSRLRSDDTAVYYCAKDSGYDWYFDIWGRGTLVTVSS
VL: EIVLTQSPATLSLSPGERATLSCRASQNISSYLAWYQQKPGQAPRLLIYDASNRATGIPARFSGSGSGTDFTLTISSLEPEDFAVFYCQQHSNWPPLTFGGGTKVEIKR
notes: as for B4

Continued, binder first:

B1: murine anti-SEZ6L2 antibody mu2E4 (antibody, V domains shown)
VH: EVKLVESGGVLVKPGGSLKLSCAASGFTFSKYAMSWVRQTPEKRLEWVATISSGGSYTYYPDSVKGRFTISRDNARNTLYLQMSSLRSEDTAIYYCTREGGYDEGYAMDYWGQGTTLTVS
VL: DVVMTQTPLSLPVSLGDQASISCRSSQSLVHSYGNTYLHWYLQKPGQSPKLLIYKVSNRFSGVPDRFSGSGSGTDFTLKISRVEAEDLGVYFCSQSTHFRTFGGGTKLEIK
notes: Mouse hybridoma antibody
binding result [1]: binds

B2: human anti-SEZ6L2 antibody 3B3 (antibody, V domains shown)
VH: EVQLVESGGGLVQPGGSLRLSCAASGFTFSSYWMSWVRQAPGKGLEWVANIKQDGSEKYYVDSVKGRFTISRDNAKNSLYLQMNSLRAEDTAVYYCARGGGSYAFDYWGQGTLVTVSS
VL: not shown
notes: as for B4
binding result [2]: no binding (tested: 1 ug/ml)
binding result [3]: binds
binding result [4]: no binding (tested: 1 ug/ml)

B3: human anti-SEZ6L2 antibody 1A1 (antibody, V domains shown)
VH: QVQLVQSGAEVKKPGASVKVSCKASGYTFTGYYMFWVRQAPGQGLEWLGWINPNSGGTDYAQKFQGRVTMTRDTSISTAYMELSRLRSDDTAVYYCARDSGYDWFFDYWGQGTLVTVSS
VL: not shown
notes: Fully human antibody from H2L2 mice, expressed recombinantly; it was captured on Protein A and detected with anti-human IgG
Kd [5]: 1 nM
Kd [6]: 1 nM
binding result [7]: no binding (tested: 1 ug/ml)
binding result [8]: no binding (tested: 1 ug/ml)

B5: murine anti-SEZ6L2 antibody mu3E2 (antibody, V domains shown)
VH: EVLLVESGGRLVQPKGSLKLSCAASGFSFNTITMNWVRQAPGKGLEWVARIRSKSNNYATYYADAVKDRFTISRDDSQSMLYLQMNNLKTEDTAMYFCVRGIFSGYVYAMDYWGQGTTLTVSS
VL: DVVMTQSPLSLPVSVGDQASISCRSSQSIVHSNGNTYLEWYLQKPGQSPKVLIYKVSNRFSGVPDRFSGSGSGTDFTLKISRVEAEDLGVYYCFQGSHVPYTFGGGTKLEIK
notes: Mouse hybridoma antibody
binding result [1]: binds
